Test results: patent US20250043302A1, “MUTATED HYDROXYPHENYLPYRUVATE DIOXYGENASE POLYPEPTIDE, AND CODING GENE AND USE THEREOF” (BEIJING DABEINONG BIOTECHNOLOGY CO., LTD., priority 2021, published 2025)

How the values were obtained:
Format in all cases: in vivo
[1] = test system: Arabidopsis thaliana T1 plants; test: Topramezone tolerance of transgenic Arabidopsis thaliana T1 plants (spray, bleached leaf area grade, damage score); conditions: for Resistance evaluation / Scores / Grade 0 (classification and statistics of the grade of pesticide damage; number of plants) / Grade 1 (classification and statistics of the grade of pesticide damage; number of plants) / Grade 2 (classification and statistics of the grade of pesticide damage; number of plants) / Grade 3 (classification and statistics of the grade of pesticide damage; number of plants): Arabidopsis thaliana T1 plants; for Grade 0 (classification and statistics of the grade of pesticide damage; number of plants) / Grade 1 (classification and statistics of the grade of pesticide damage; number of plants) / Grade 2 (classification and statistics of the grade of pesticide damage; number of plants) / Grade 3 (classification and statistics of the grade of pesticide damage; number of plants): 16 plants
Method in brief: (§1)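 Damage graded 0–3 from the proportion of bleached leaf area 7 days after spraying. Plants were glufosinate-selected T1 lines, 18 days after sowing, plus vector and wild-type controls. Rates: mesotrione 52.5–420, isoxaflutole 35–280, topramezone 25–200 g ai/ha, with water (0×).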

[2] = test system: Arabidopsis thaliana T1 plants; test: Isoxaflutole tolerance of transgenic Arabidopsis thaliana T1 plants (spray, bleached leaf area grade, damage score); conditions: Arabidopsis thaliana T1 plants; for Grade 0 (classification and statistics of the grade of pesticide damage; number of plants) / Grade 1 (classification and statistics of the grade of pesticide damage; number of plants) / Grade 2 (classification and statistics of the grade of pesticide damage; number of plants) / Grade 3 (classification and statistics of the grade of pesticide damage; number of plants): 16 plants;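 for Scores: Weighted damage index from 0 to 100 where higher means more damage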
Method in brief: as §1

[3] = test system: Arabidopsis thaliana T1 plants; test: Mesotrione tolerance of transgenic Arabidopsis thaliana T1 plants (spray, bleached leaf area grade, damage score); design: Scores: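 damage score 0-100 computed as Σ(N×S)/(T×M)×100 over grades 0-3 with higher meaning more damage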; conditions: Table 9; for Classification and statistics of the grade of pesticide damage Grade 0: number of plants at grade 0; for Classification and statistics of the grade of pesticide damage Grade 1: number of plants at grade 1; for Classification and statistics of the grade of pesticide damage Grade 2: number of plants at grade 2; for Classification and statistics of the grade of pesticide damage Grade 3: number of plants at grade 3; for Scores: pesticide damage score
Method in brief: as §1

[4] = topramezone 100 g ai/ha (4x field concentration)
[5] = topramezone 200 g ai/ha (8x field concentration)
[6] = isoxaflutole 140 g ai/ha (2x field concentration)
[7] = isoxaflutole 280 g ai/ha (4x field concentration)

B1: AsHPPDm-F372V-F383W-02: nucleotide sequence encoding Avena sativa HPPD with F372V+F383W; vector DBN11777 (nucleic acid)
DNA: ATGCCACCTACTCCAGCTACAGCTACTGGTGCTGCTGCTGCTGCCGTTACTCCTGAGCACGCTGCCAGGTCATTCCCCAGGGTGGTTCGCGTGAACCCCAGATCTGATAGGTTCCCAGTTCTGAGCTTCCACCATGTTGAGCTGTGGTGCGCTGATGCTGCTTCTGCTGCTGGCAGGTTCTCTTTCGCTCTTGGTGCTCCACTCGCTGCTAGATCTGATCTGTCTACAGGAAATAGCGCTCATGCCTCACTCCTGCTTCGCTCAGGTGCTTTGGCCTTCCTCTTCACCGCTCCATATGCTCCCCCACCTCAGGAGGCTGCTACTGCTGCTGCTACAGCCTCCATTCCAAGCTTCTCAGCTGATGCCGCTAGAACCTTCGCTGCTGCTCATGGACTTGCCGTGAGGTCTGTTGGTGTTCGCGTGGCTGATGCTGCTGAGGCTTTCAGAGTTTCCGTTGCCGGCGGAGCTAGGCCAGCTTTCGCTCCTGCTGATTTGGGACATGGTTTCGGCCTGGCTGAGGTTGAGCTTTACGGTGACGTGGTTCTCCGCTTCGTGTCTTACCCAGATGAGACTGACCTGCCTTTCCTTCCCGGCTTCGAGAGAGTTTCCTCTCCTGGTGCCGTGGATTACGGCCTGACAAGGTTCGACCACGTGGTTGGAAACGTTCCCGAGATGGCTCCAGTGATCGATTACATGAAGGGCTTCCTTGGATTCCATGAGTTCGCCGAGTTCACTGCTGAGGACGTGGGAACCACTGAGTCCGGTTTGAACTCTGTGGTTCTCGCCAACAATTCTGAGGCTGTTTTGCTCCCTCTGAATGAGCCTGTGCATGGAACCAAGAGGAGAAGCCAGATTCAAACTTACCTGGAGTACCACGGTGGCCCTGGAGTTCAGCATATCGCCCTTGCTTCTAATGATGTGTTGCGCACACTCAGAGAGATGCGCGCCAGAACCCCCATGGGAGGTTTCGAGTTCATGGCCCCACCACAGGCTAAGTACTACGAGGGCGTTAGAAGGATTGCTGGAGACGTGTTGAGCGAGGAGCAGATCAAGGAGTGCCAAGAGCTGGGTGTTCTTGTGGATAGGGATGACCAGGGCGTTCTGCTTCAAATTGTCACTAAGCCAGTGGGCGACCGCCCTACATTCTGGCTTGAGATGATTCAAAGAATCGGCTGCATGGAGAAGGATGAGGTTGGACAGGAGTACCAAAAGGGCGGATGCGGTGGCTTCGGAAAGGGTAACTTCAGCGAGTTGTTCAAGTCAATCGAGGACTACGAGAAGAGCCTCGAGGTGAAGCAGTCAGTGGTTGCCCAAAAGTCCTGA
modifications: AsHPPDm-F372V-F383W-02 Nucleotide Sequence
notes: vector DBN11777
Resistance evaluation [1, 4]: Highly resistant
Scores [1, 4]: 0
Grade 0 (classification and statistics of the grade of pesticide damage; number of plants) [1, 4]: 16
Grade 1 (classification and statistics of the grade of pesticide damage; number of plants) [1, 4]: 0
Grade 2 (classification and statistics of the grade of pesticide damage; number of plants) [1, 4]: 0
Grade 3 (classification and statistics of the grade of pesticide damage; number of plants) [1, 4]: 0
Resistance evaluation [1, 5]: Highly resistant
Scores [1, 5]: 0
Grade 0 (classification and statistics of the grade of pesticide damage; number of plants) [1, 5]: 16
Grade 1 (classification and statistics of the grade of pesticide damage; number of plants) [1, 5]: 0
Grade 2 (classification and statistics of the grade of pesticide damage; number of plants) [1, 5]: 0
Grade 3 (classification and statistics of the grade of pesticide damage; number of plants) [1, 5]: 0
tolerance to topramezone (resistance class) ([1]; topramezone at four-fold or eight-fold field concentration): highly-resistant
Resistance evaluation [2, 6]: Highly resistant
Scores [2, 6]: 0
Grade 0 (classification and statistics of the grade of pesticide damage; number of plants) [2, 6]: 16
Grade 1 (classification and statistics of the grade of pesticide damage; number of plants) [2, 6]: 0
Grade 2 (classification and statistics of the grade of pesticide damage; number of plants) [2, 6]: 0
Grade 3 (classification and statistics of the grade of pesticide damage; number of plants) [2, 6]: 0
Resistance evaluation [2, 7]: Highly resistant
Scores [2, 7]: 10
Grade 0 (classification and statistics of the grade of pesticide damage; number of plants) [2, 7]: 12
Grade 1 (classification and statistics of the grade of pesticide damage; number of plants) [2, 7]: 3
Grade 2 (classification and statistics of the grade of pesticide damage; number of plants) [2, 7]: 1
Grade 3 (classification and statistics of the grade of pesticide damage; number of plants) [2, 7]: 0
Resistance evaluation ([3]; mesotrione 210 g ai/ha (2×)): Highly resistant
Classification and statistics of the grade of pesticide damage Grade 0 ([3]; mesotrione 210 g ai/ha (2×)): 16
Classification and statistics of the grade of pesticide damage Grade 1 ([3]; mesotrione 210 g ai/ha (2×)): 0
Classification and statistics of the grade of pesticide damage Grade 2 ([3]; mesotrione 210 g ai/ha (2×)): 0
Classification and statistics of the grade of pesticide damage Grade 3 ([3]; mesotrione 210 g ai/ha (2×)): 0
Scores ([3]; mesotrione 210 g ai/ha (2×)): 0
Resistance evaluation ([3]; mesotrione 420 g ai/ha (4×)): Highly resistant
Classification and statistics of the grade of pesticide damage Grade 0 ([3]; mesotrione 420 g ai/ha (4×)): 15
Classification and statistics of the grade of pesticide damage Grade 1 ([3]; mesotrione 420 g ai/ha (4×)): 1
Classification and statistics of the grade of pesticide damage Grade 2 ([3]; mesotrione 420 g ai/ha (4×)): 0
Classification and statistics of the grade of pesticide damage Grade 3 ([3]; mesotrione 420 g ai/ha (4×)): 0
Scores ([3]; mesotrione 420 g ai/ha (4×)): 2
